Reference: US6794147 (Pfizer, dated 2004)

Target: T1, mouse MLH1 (endogenous, mouse testicular lysates) (mouse, UniProt Q9JK91 1-760)
T1 construct: Endogenous protein immunoprecipitated from mouse testicular lysates
T1 sequence (looked up): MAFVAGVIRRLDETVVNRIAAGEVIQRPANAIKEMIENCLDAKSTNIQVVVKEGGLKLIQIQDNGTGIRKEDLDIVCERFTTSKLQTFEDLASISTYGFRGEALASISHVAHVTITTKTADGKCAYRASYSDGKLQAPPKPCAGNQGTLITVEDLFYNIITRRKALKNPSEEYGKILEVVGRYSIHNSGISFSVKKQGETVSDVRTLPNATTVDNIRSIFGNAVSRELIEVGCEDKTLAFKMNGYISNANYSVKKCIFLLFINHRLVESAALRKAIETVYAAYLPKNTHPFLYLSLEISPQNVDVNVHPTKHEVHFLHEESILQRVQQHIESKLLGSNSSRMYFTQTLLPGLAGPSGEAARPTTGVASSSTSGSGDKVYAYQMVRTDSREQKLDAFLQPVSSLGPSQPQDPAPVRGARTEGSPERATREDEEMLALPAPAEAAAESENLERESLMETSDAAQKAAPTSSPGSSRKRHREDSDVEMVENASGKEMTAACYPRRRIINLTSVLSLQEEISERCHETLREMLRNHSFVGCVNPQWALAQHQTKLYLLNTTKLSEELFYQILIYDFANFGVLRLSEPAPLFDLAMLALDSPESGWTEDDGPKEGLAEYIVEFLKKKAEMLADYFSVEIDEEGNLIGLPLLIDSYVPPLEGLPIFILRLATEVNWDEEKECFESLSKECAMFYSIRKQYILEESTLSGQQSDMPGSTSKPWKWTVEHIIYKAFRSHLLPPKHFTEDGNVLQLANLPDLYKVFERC
Assay: co-immunoprecipitation from mouse testicular lysates with anti-RAD51 antibody, Western blotting

- binding result: no binding
B1: mouse RAD51 (endogenous, mouse testicular lysates) (other, UniProt Q08297 2-339, looked up)
chain: AMQMQLEASADTSVEEESFGPQPISRLEQCGINANDVKKLEEAGYHTVEAVAYAPKKELINIKGISEAKADKILTEAAKLVPMGFTTATEFHQRRSEIIQITTGSKELDKLLQGGIETGSITEMFGEFRTGKTQICHTLAVTCQLPIDRGGGEGKAMYIDTEGTFRPERLLAVAERYGLSGSDVLDNVAYARGFNTDHQTQLLYQASAMMVESRYALLIVDSATALYRTDYSGRGELSARQMHLARFLRMLLRLADEFGVAVVITNQVVAQVDGAAMFAADPKKPIGGNIIAHASTTRLYLRKGRGETRICKIYDSPCLPEAEAMFAINADGVGDAKD
notes: Endogenous protein immunoprecipitated from mouse testicular lysates
